Values of other authors, collected in article PMC3869910.

Biological target: alpha-bungarotoxin (Bungarus multicinctus) (UniProt P60615)
UniProt P60615, sequence (P60615 22-95): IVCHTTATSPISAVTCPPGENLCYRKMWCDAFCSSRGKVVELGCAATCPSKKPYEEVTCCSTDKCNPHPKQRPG

## nicotinic acetylcholine receptor alpha1 (y-α1-ECD) ECD (from UniProt P02708)
  Kd: 5 nM
